Results reported in patent US6423503 (HYBRITECH, dated 2002).

T1: α1antichymotrypsin (ACT) (human, UniProt P01011 24-423)
T1 construct: Used in excess in the incubation with PZ-N PSA
T1 sequence (looked up): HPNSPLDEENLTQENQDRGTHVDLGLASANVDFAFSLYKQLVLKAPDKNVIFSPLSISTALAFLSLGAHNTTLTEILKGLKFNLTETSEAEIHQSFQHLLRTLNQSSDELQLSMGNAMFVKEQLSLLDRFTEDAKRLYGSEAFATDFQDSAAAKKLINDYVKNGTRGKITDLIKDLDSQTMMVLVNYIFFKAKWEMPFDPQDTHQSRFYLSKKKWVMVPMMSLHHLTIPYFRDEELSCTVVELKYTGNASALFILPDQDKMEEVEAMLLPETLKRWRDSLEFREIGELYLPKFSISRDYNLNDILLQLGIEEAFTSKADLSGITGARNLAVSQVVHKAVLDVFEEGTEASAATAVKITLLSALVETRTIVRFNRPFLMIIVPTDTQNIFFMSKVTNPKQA


Each binder was assayed against T1, α1antichymotrypsin (ACT) (assay: incubation with excess ACT, HIC-HPLC, N-terminal sequencing).
Experimental: Figure 4: FIG. 4 is HIC-HPLC profile of the reaction mixture of PZ-N PSA incubated with excess ACT. […] Peak 2 is the residual excess active ACT. Peak 3 is the covalent PSA-ACT complex.
The original profile of this PZ-N sample is seen in FIG. 1. […] Peak 2 is the residual excess active ACT remaining after incubation. […] The [−2]pPSA is a truncated form of pPSA which contains the last two amino acids of the 7 amino acid pro leader peptide. PPSA is expressed with a heptapeptide pro leader sequence consisting of APLILSR. Thus, the [−2] pPSA contains the serine-arginine dipeptide on the N-terminal isoleucine of mature PSA. The minor peak eluting at 12 min contains the [−4]pPSA. The retention time of [−4]pPSA has been reported previously (10).

Row | binding result | Binder
1 | no binding | [+5]PSA (enzyme, I equated '[+5]PSA' with 'PSA clipped after Gly4'; also called PSA clipped after Gly4) not shown
2 | no binding | [-1]pPSA (enzyme) not shown
3 | no binding | [-4]pPSA (enzyme, also called [-4]proPSA) not shown
4 | no binding | [-2]pPSA (enzyme, also called [-2]proPSA) not shown
